Literature values, collected in article PMC9558124.

Molecular target: PEX19 (Homo sapiens) (UniProt P40855)
Chain of UniProt P40855 (P40855 2-296): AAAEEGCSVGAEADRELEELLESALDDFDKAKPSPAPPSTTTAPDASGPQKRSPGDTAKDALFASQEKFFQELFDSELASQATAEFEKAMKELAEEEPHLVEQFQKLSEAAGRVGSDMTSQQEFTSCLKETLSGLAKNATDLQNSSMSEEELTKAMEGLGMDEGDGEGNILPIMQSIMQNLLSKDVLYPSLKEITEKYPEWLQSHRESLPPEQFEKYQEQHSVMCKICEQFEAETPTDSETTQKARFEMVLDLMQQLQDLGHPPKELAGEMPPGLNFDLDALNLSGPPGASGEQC

Kd: 10 nM
Substance: PEX3 CTD (from UniProt P56589)
